In the supplement of paper PMC9170038:

System: MS2 coat protein
Experiment: apparent KD of MS2 coat protein; designed switch direction (-1 OFF switch, 1 ON switch): -1; higher = weaker reporter binding
Outline: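 The apparent KD reported per design is the median over clusters of curve fits to normalised cluster fluorescence. The RNA switches were transcribed on Illumina chips by stalled E. coli RNA polymerase. SNAP-549-labelled MS2 coat protein was titrated from 0.7 or 1.5 nM, doubling up to 3 µM, in Tris-HCl pH 7.5 buffer containing KCl, MgCl2, BSA, DTT, tRNA and Tween-20, with no input, 200 uM small-molecule ligand, or an oligonucleotide input.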

[1] = input ligand: microRNA oligo, concentration not stated
[2] = Eterna round: R95, input ligand: microRNA oligo, concentration not stated
[3] = Eterna round: R95, input ligand: FMN 200 uM
[4] = Eterna round: R95, input ligand: none

Row | Sequence | apparent KD of MS2 coat protein (input ligand: FMN 200 uM) | apparent KD of MS2 coat protein [1] | apparent KD of MS2 coat protein (input ligand: none) | apparent KD of MS2 coat protein [2] | apparent KD of MS2 coat protein [3] | apparent KD of MS2 coat protein [4]
1 | AGCUGUGGCCGAGGAUAUCACAUGAGGAUCACCCAUGUACAUGAUUAAGCCUGGUAACAGGCUCAUGAGAAGGCGGUCUCAGCA [Eli eng2 - 014] (Eterna round: R96, puzzle: Exclusion NG 2) | 12 nM | 13.1 nM | 20.6 nM | – | – | –
2 | GACUGACAUGAGGAUCACCCAUGUAAGGAUAUAGGGAACGUCGUUCCGCAACCCGCGCCUAGAAGGUACAAGGU [EX1 C.11] (Eterna round: R97, puzzle: Exclusion 1) | 18.2 nM | – | 16.1 nM | – | – | –
3 | GGGUGCGAGCUAAGAUCCUACAUGAGGAUCACCCAUGUGGUCCGGUGACGUGAGUCACCGGACUUAGCUCGUCUUGU [salish99_S_TOV1_R5_005] (Eterna round: R97, puzzle: Sensor, turn-off variant 1) | 26.3 nM | – | 29.2 nM | – | – | –
4 | AAGAGUGCAGGAUAUACUUGGUAGGGCGGGUGGAUGGUUUGACAUGAGGAUCACCCAUGUAGAAGGGCAGAGAG [JR_Exclu2_Sub054] (puzzle: Exclusion 2) | – | – | – | 31.4 nM | – | –
5 | UAAUUAAGUGUGAGGAUAUGCUGGUCCUUGGAUCAGCAGAAGGCACAUGAGGAUCACCCAUGUAAAUUAUUUAU [Mat - Exclusion 4 - JL Mod - D60] (Eterna round: R96, puzzle: Brourd's mod of Exclusion 4) | 332 nM | 54 nM | 76.5 nM | – | – | –
6 | AGGUGAGCCGUCAGGAUAUGCGUUCCGUAGGGUCAGCAGAAGGGACAUGAGGAUCACCCAUGUUUCGCACGUGG [Veraxedi] (Eterna round: R96, puzzle: Brourd's mod of Exclusion 4) | 76.5 nM | 23.5 nM | 31.5 nM | – | – | –
7 | AAGAAGAAACAAGCUUUUUGCACGUCAUAUAGUGACGCAACAUGAGGAUCACCCAUGUAUAGGGUGGGAAAGGAUAG [JR_SV3TOV2_Sub047] (puzzle: Sensor v3, turn-off variant 2) | – | – | – | 70 nM | 338 nM | 423 nM
8 | AGCCUAGCAGGAUAUGCCCGGGAUAACAUGAGGAUCACCCAUGUGACUGAUUGAUGUCUUGCAGAAGGGCUAGGGA [JL-EX5-4.03 ViennaUCT mod] (Eterna round: R97, puzzle: Exclusion 5) | 211 nM | – | 26.1 nM | – | – | –
9 | CGUGACUGAGGAUAUCUAUAAUAUCACAUGAGGAUCACCCAUGUCCAGCGAAAGCUGGAAGGAGAAGGCAGUCACG [Fiskers Ex 5 - 34] (puzzle: Exclusion 5) | – | – | – | 21.4 nM | 39.3 nM | 25.1 nM
10 | AUAAUGUCAGGAUAUCAGUCGACUAGCUGCGGCUAGUCGACUGAGAAGGGACAUGAGGAUCACCCAUGUGUUUC [E4/14-A3] (Eterna round: R97, puzzle: Exclusion 4) | 475 nM | – | 367 nM | – | – | –
11 | GAAAACGUAGGAUAUUAAUACUUAUACAUGAGGAUCACCCAUGUUUGGUGGGUUUAAGAAUGAGAAGGGCGAUGAA [EX5 #8] (Eterna round: R97, puzzle: Exclusion 5) | 446 nM | – | 717 nM | – | – | –
12 | UAUUAGCAAGCGAGAUCCCACAUGAGGAUCACCCAUGUGCUCGUCUUAUAAAGUACUGUGACGAAAGUCACGGUACU [Mat - Sensor, turn-off var - Eli Mod - D7] (Eterna round: R97, puzzle: Sensor, turn-off variant 1) | 15.2 nM | – | 14.6 nM | – | – | –
13 | AGUACUUACACGAAAGUGUUAGUACAAUAAGCUUGUGAAACAUGAGGAUCACCCAUGUCCUCAUAAGCUCGUCUUAU [salish99_TOv2_r3_016] (puzzle: Sensor v3, turn-off variant 2) | – | – | – | 615 nM | 18.6 nM | 17.1 nM
14 | CUGAGUUGAGGAUAUACAUGAGGAUCACCCAUGUAAAGUAGCUUGCGUACAGGCAGAUGUAGAAGGCAAUUCGG [Mod of JL 3 - Jieux - Exclusion 3] (Eterna round: R97, puzzle: Exclusion 3) | 37.6 nM | – | 24.5 nM | – | – | –
15 | CUGAGCUGAGGAUAUACAUGAGGAUCACCCAUGUGAAGUAGCUUGCGUACAGGCAGAUGUAGAAGGCAGUUCGG [JL-ex3-3.31 Brourd mod] (puzzle: Exclusion 3) | – | – | – | 34.6 nM | – | –
16 | UCUUACUGAGGAUAUACUUAGAUUUACAUGAGGAUCACCCAUGUUCCUCUAUGUAUAUAUGUAGAAGGCAGAAGAA [Mat - Exclusion 5 - JL Mod - D46] (Eterna round: R97, puzzle: Exclusion 5) | 241 nM | – | 37.1 nM | – | – | –
